Legend:
p62(PB1)-p53 = assay: cell-based or functional assay
p62(PB1)-FKBP12 = assay: cell-based or functional assay

Substance	IC50 of Nutlin-3, total luminance of fluorescent foci per cell (stable CHO-K1 line) (p62(PB1)-p53) [µM]	IC50 of FK506 in the presence of 20 nM rapamycin, total fluorescence intensity of fluorescent foci per cell (stable HeLaS3 line) (p62(PB1)-FKBP12) [µM]
AG-MDM2	8.9	–
mTOR(FRB)-AG	–	0.68

Reference: patent US20140335539A1
